Experimental findings from the DeepSol protein solubility set are described below.

A short description of this series: soluble on expression in E. coli; label from the status in PepcDB or PDB records.
“MAHHHHHHMLPHSVPTSPHQERDRPLEQMTDEELRRELVMLIRTNAILAEESAGLQADISALCEESVRFQQSTEIEEDKVTNQLLRRLQSEEVQKHRFHHQILCEEKARRKIMDQITQVRQQMELEKQLEQEQEVQRMELQRKLIDVVNKKIEVERQLLEERRVQLEALTTKLASIKEGSLAAKSKVDGAVGSRGTQGPSASSQQCQSGTANMTHESPAAAAAAAVAASSQPPPVKTETVPSSVDLPASDVAGDDTHGTIIRLEEQLNRLLEQHAAATQASATNESLCTELGRNLETIQQAASVDRARTLKLKEELQETKRRVAVLEQRAAVGTAYAASDDSSDLPTPSVSSLYDDKRRESLLNCHQRYPSSCVPPSCSASEAGEDTRSV”: the “soluble on expression in E. coli” value is listed as “not soluble”. Take “MGSDKIHHHHHHMLEGIFDINHVFDEEGIKTLKRFGWDGSVAVQNHNEYSEEKINTAVEYGENCEFKVYSGVKISTKNQNEMEKAVKKYRNKVDILLVEGGDVKINRRVLEMNDVDILSTPELNRMDNGLDHILARLGSTNRVAVELNFGNLLKSKNYDRSKILWAFQRNLKLSKKYDTPVVISSGANDIYGIKAPGDLRGFLNTVADPLYSKKIIETTSKIIDYRLYLKNKNVLMPGLEIVEE”: the “soluble on expression in E. coli” value is “not soluble”. Turning to “MSLKIGIDVGSTTAKLVAVDENDNLLFSKYERHNAKAKETILSFLKELLSEIGDKDISVRITGSIGMGISEKCSLPFVQEVVAAAKAIQKDYSHVTSMIDIGGEDAKVVFFNDAEATDLRMNGNCAGGTGAFIDQMAIILGVNIDELNQLAMNATQVYPIASRCGVFCKTDIQNLIAKNVSRENIAASIFRAVAVQTVVTLAHGCDITTPVLFCGGPLTFIPALRKAFIDYLSLDEKEIILPANGTLLPALGAALFHLDKEDYCKLSHLIDKEGHHHHHH”, the “soluble on expression in E. coli” value is “soluble”. With “GAAASIQTTVNTLSERISSKLEQEANASAQTKCDIEIGNFYIRQNHGCNLTVKNMCSADADAQLDAVLSAATETYSGLTPEQKAYVPAMFTAALNIQTSVNTVVRDFENYVKQTCNSSAVVDNKLKIQNVIIDECYGAPGSPTNLEFINTGSSKGNCAIKALMQLTTKATTQIAPKQVAGTGVQ”, the “soluble on expression in E. coli” value is “soluble”. Take “TLEPTQSVQNYMIQADSTEGSLQNDWLIMATKAAIQANQLDQADLLIKRLARQQLTEVQQAEWQLARATIQQKQGDYSQLLQLLNFKPWWKLPNEQWKDYYSLRADAYQSLNQPFEANRQLVAFSQYASSAEQREISSRIWMNFGSYSEYELTSLQTEPSEDVLDGWLQLAVYAKTLSGNLSQLKNTLERWLNENPSHPAAIYTPEEIQNILSLDIVKPNNTALLLPLTGKFAPQAQLIRDGFVFAMMNDRNRDPSATLTVIDTNAYSADEVKQRLINENIDFVVGPLQKENVELLQTTMDGSANSPAIPALALNIPEDVQPGTDICYLALSPEQEVAQAAKYLFSEGYSFPLILAPKGSYGERVVQAFNEEWSKYSSNKVATSYFGDKRQLQKDINDVFGLQESKQRIAQMQSLMRIKLETQPRSRRDVDAVYIVARSSELTLIKPFIEVAINPDAKPPKLFSNSRSNSGGATYEDLTGIIYSDIPLLVNPDPIVTAEMNELWADQSNMEKRLKALGMDAYKLIGELPQMKVVPGYSVSGQTGTLSIDNNCVVQRELSWAERGAL”: the “soluble on expression in E. coli” value was “not soluble”. For the sequence “MGSDKIHHHHHHMMNSFYNGISGVKSNSFGIDITANNIANVNTTGFKYSDAQFKDIFYTTITTQSTNPAQGGYGSGAASSQVVFEQGSPVASDGEFDVALQGKGFFGVLGADGNAYYTRNGSFRRDANGYLVDSYGNFVLGTMNPAFTGINYSDRVAGLMGDYLNTGTPVNNGFTVNSNNSFSIGTTASQGAIKVPVNMYLPPQVTQNVKWSGSLNTNTTTEVVKVDLDPSKFNITKTEDGKYVVSGSVSKEDVFSAKAGDRIILNFTDDNGVKTSFEATLDENLNFKSNELDLKGLDENSIKLDTAQISTEQQKANKDILESPIYNADGSKSTLRVTLERVLPQEGDNIQYKAIAQIYDSNGNAVGNPTEGNMVFDKNGALLQNNITSIANPNGGTINIDLGSPYDANKPGSGYSGIYIKQGVEKNVVTQQDGVAEGFFEQYNISDDGSIVAQFSNGKNAIVGKLALYNFINEQGLVAMGDNIFAATANSGDASFIMKDGQVVNTAKFKGGFLEQSNVDLSAELSNLIVTQKAFDASSKSITTSDQMIQKAINMKR”, the “soluble on expression in E. coli” value is given as “not soluble”. “MGSDKIHHHHHHMLTTLAIFNYRSLREIVLPLGQLNLITGANGSGKSNLYKALRLLAQTAQGGVVNALAQEGGLDSSFWAGPENFTKSMLAGDTAIEATVRQAPKRLKLGFAGEDFSYLIELGLPEPDATTLFGLDPQIKREAIWNGPKYRPSTVLVERRGPMVKSRSADGKGWIILGAHLQTGDSLFTELADPERCPEVLKLRDSIRAWRFYDHFRTDAEAPARRPQLGTATPVLHHDGRDLASAIQTIFEIGDKSAFDHAVSDAFPGAKVRIEPQAGGILVLAFHQHGLLRPLNASELSDGTLRYLLLIAALLTPRPPELMVLNEPETSLHPDLLPALARLIAKVSEECQLWVVSHANRLINALSQFEHCNTLALDKTLGQTQIQGQDLLNTPSWLWQNR”: the “soluble on expression in E. coli” value is “not soluble”.

In the case of “MGSDKIHHHHHHMNSGIYSALTGNVAAMKRLDVLSNNLANVNTPGFKKDRMTFESMLQTVGAQPRPGGGTDAPVFAETTFFTDYSPGSVKQTGNPFDLAIDGDGFFAVTTADGQRAYTRQGNFRLDSTGRLVTADGAQVAGGVVIAGGKVDINGKGEVLVDGSQVGRLEVVDFPKPYALQKLGGGLFVPADPQATPNPVTGEKVMQGAIEESNVNTVQEMVQLIETNRYFEMCSKVVKAYDDLTGKAANEIGKI”, the “soluble on expression in E. coli” value is “not soluble”.

In the case of “IAQQTEETVVEVETVTGFGANDAILDIRSIDEQEDKPLKVEGVEVVSLPFYKLSTKFGDLDQSKTWLLWCERGVMSRLQALYLREQGFSNVKVYR”, the “soluble on expression in E. coli” value is “not soluble”. For “MGSDKIHHHHHHMPEPELMDDPLQARAYAEADFSCGDEALIQRLQEYLISLCKIPSPGSMIVDLGCGPGNICERLQRLWPEVMVLGIDGAQAMLDHALQRQKAMAAELKRLTYRCSNLSSLVNQCVDLKCSAALVVSNSLLHHLHDPNLLWQVTKYLAAPGAFVFHRDLRRPLSTKHAIALQQKHMQEAPSILIRDYLASLHAAFTLEEVQSQLVHAGLDHLHVIEVEDRYLDVFGTI” the value was “not soluble”; for “MAAQIPESDQIKQFKEFLGTYNKLTETCFLDCVKDFTTREVKPEETTCSEHCLQKYLKMTQRISMRFQEYHIQQNEALAAKAGLLGQPR”, “soluble”. For “MNPEEQIVTWLISLGVLESPKKTICDPEEFLKSSLKNGVVLCKLINRLMPGSVEKFCLDPQTEADCINNINDFLKGCATLQVEIFDPDDLYSGVNFSKVLSTLLAVNKATEDQLSERPCGRSSSLSAANTSQTNPQGAVSSTVSGLQRQSKTVEMTENGSHQLIVKARFNFKQTNEDELSVCKGDIIYVTRVEEGGWWEGTLNGRTGWFPSNYVREIKSSERPLSPKAVKGFETAPLTKNYYTVVLQNILDTEKEYAKELQSLLVTYLRPLQSNNNLSTVEVTSLLGNFEEVCTFQQTLCQALEECSKFPENQHKVGGCLLSLMPHFKSMYLAYCANHPSAVNVLTQHSDELEQFMENQGASSPGILILTTNLSKPFMRLEKYVTLLQELERHMEDTHPDHQDILKAIVAFKTLMGQCQDLRKRKQLELQILSEPIQAWEGEDIKNLGNVIFMSQVMVQYGACEEKEERYLMLFSNVLIMLSASPRMSGFIYQGKIPIAGTVVTRLDEIEGNDCTFEITGNTVERIVVHCNNNQDFQEWLEQLNRLIRGPASCSSLSKTSSSSCSAHSSFSSTGQPRGPLEPPQIIKPWSLSCLRPAPPLRPSAALGYKERMSYILKESSKSPKTMKKFLHKRKTERKPSEEEYVIRKSTAALEEDAQILKVIEAYCTSANFQQGHGSSTRKDSIPQVLLPEEEKLIIEETRSNGQTIMEEKSLVDTVYALKDEVRELKQENKRMKQCLEEELKSRRDLEKLVRRLLKQTDECIRGESSSKTSILP” the value was “soluble”. Regarding “MYNLLTKQEIQLLSLIEYLYDSKEKVPMQVLRRKYEFSHYNINNLLNQLTLLISRVNTHENVHIRIINNQQSIELVADENIPIELMKEAVVRGSLTYMLALDLLLKRYTSAKDFCEEHFINFSIFKQVSDRLNNHLARFNCYLNLKRREKICGNEKDFRSFFYSLFFISGTSLVPFLSKTNQAQLQNFIEIIKNRYPYFTYTDLRKLKLIMSIGLLRYQSGFTITNYPEVAAINLAFPYSEFQLLVNDCFIDEQKEPDTWQAEIHFYYDFFSTLTMYSLVQMETINFANLAIMGMDNSPHATWIFEKCTQLQLDLSAIEVVFLLVNLSNASERLIHFPVEEELSYEVANVSLYEKQYPNVSRTTNYFLKRLPFDKQHPLDALFKETIFLIIRSVLLNKQIPVKILLHSSINQIQENWLAKEINNYCDVPLKFVNHIQEVPDLVITDKNNPLFHASKTFYWHPVPYLDEYYNLKQVVRKIYFAKLRGENSLEGIGC”, the “soluble on expression in E. coli” value is on record as “not soluble”.

Regarding “MGSDKIHHHHHHMQDDRLFPYGHARGAGWREALSSALEMAGPRVRGGTLGFLYVTDSFESDLPDILSAVREQTGVPHWTGCVGAGICATAQEYLDEPALAFMVTDFPETEFRLFAGMGPYRTGKSWPTGPGRPPYFAIVHGDSQTPDLPDLVRDFAGQMGSGFITGGICSSRTDGAQLVDEVVHGGLSGVTFSENIAVATRLTQGCSPIGPIHHINEAHNNVISRLDDRPALDVFNDETCDILSRDLQRAAGFIFVAMPVKNDDRGDYMVRTLVGIDIERKLLAIGEYAEAGQSLMFCKRDSGTAGEDLERMLSDISRLADGRKIRGGLYFTCVWRGQNLFGPDSAELRMIRDGLGDFPLVGFFANAEISHDKIYGYTGVLTLFLDAPTS”, the “soluble on expression in E. coli” value is “not soluble”. Turning to “SLNIKLKDFTMINAVSSLAPVQSLGNYKRVEKNEKVENNEAALDRVAEIKKAIENNQYKINLHETSHKMAKDLLGIS”, the “soluble on expression in E. coli” value is recorded as “soluble”. As for “LKEDKEKYPIFVFIHKDKVTISIDTTGDALHKRGYREKANKAPIRETLAAGLIYLTPWKAGRVLVDPMCGSGTILIEAAMIGINMAPGLNREFISEKWRTLDKKIWWDVRKDAFNKIDNESKFKIYGYDIDEESIDIARENAEIAGVDEYIEFNVGDATQFKSEDEFGFIITNPPYGERLEDKDSVKQLYKELGYAFRKLKNWSYYLITSYEDFEYEFGQKADKKRKLYNGMLKTNFFQYPGPKPPRNNK”, the “soluble on expression in E. coli” value was “not soluble”. For the sequence “MGSDKIHHHHHHMIFYCALSIGRVFSATIKTCPNVHQVHHVVLTIEMSINMQNNEQTEYKTVRGLTRGLMLLNMLNKLDGGASVGLLAELSGLHRTTVRRLLETLQEEGYVRRSPSDDSFRLTIKVRQLSEGFRDEQWISALAAPLLGDLLREVVWPTDVSTLDVDAMVVRETTHRFSRLSFHRAMVGRRLPLLKTASGLTWLAFCPEQDRKELIEMLASRPGDDYQLAREPLKLEAILARARKEGYGQNYRGWDQEEKIASIAVPLRSEQRVIGCLNLVYMASAMTIEQAAEKHLPALQRVAKQIEEGVESQAILVAGRRSGMHLR”, the “soluble on expression in E. coli” value was “not soluble”. Consider “MGSDKIHHHHHHMENIALLGIDLGKHIFHVHAQDKAGHQLWRRKLNRKQLVELVANTPACRIVMESCSGAHHFARRFLQFGHDVKLIAPQYVKPFVKGNKNDFVDAEAICEAASRPAMRFAAVRNEQQQTISALHRTRDMLIRSRGSAHNQIHAYLVEFGVAIGTGPAAIRKLPAVLQAMTYRRALSPCWSNFGITFFISTSRSPLSSAN”, for which the “soluble on expression in E. coli” value is listed as “not soluble”. As for “MDDILVTSDLTSRYKISRKTLWSWQSADTMPRGFVCPFPPPDWPGNPNRWRSESIKEWEDKKKIN”, the “soluble on expression in E. coli” value was “not soluble”. As for “MFSIPPLPWGYDGLAAKGLSKQQVTLHYDKHHQGYVTKLNAAAQTNSALATKSIEEIIRTEKGPIFNLAAQIFNHTFYWESMCPNGGGEPTGKVADEINASFGSFAKFKEEFTNVAVGHFGSGWAWLVKDTNSGKLKVYQTHDAGCPLTEPNLKPLLTCDVWEHAYYVDYKNDRAAYVQTFWNVVNWKNVERQL”, the “soluble on expression in E. coli” value was “soluble”.
